Test results from patent US20240052044A1 (VIB VZW, published 2024).
Changes are numbered by the printed parent chain. In names and notes the source's numbering stands. Values belong to the binder of their own block, whether it stands above or below them.

Molecular target: T1, human CCR8 (human, UniProt P51685 1-355)
T1 construct: On stably transfected HEK293 cells or CHO-K1 cells; also called hCCR8
Experiment: competition flow cytometry on hCCR8 HEK293 cells; competitor FLAG3-tagged VHH-69

T1 sequence (P51685 whole entry): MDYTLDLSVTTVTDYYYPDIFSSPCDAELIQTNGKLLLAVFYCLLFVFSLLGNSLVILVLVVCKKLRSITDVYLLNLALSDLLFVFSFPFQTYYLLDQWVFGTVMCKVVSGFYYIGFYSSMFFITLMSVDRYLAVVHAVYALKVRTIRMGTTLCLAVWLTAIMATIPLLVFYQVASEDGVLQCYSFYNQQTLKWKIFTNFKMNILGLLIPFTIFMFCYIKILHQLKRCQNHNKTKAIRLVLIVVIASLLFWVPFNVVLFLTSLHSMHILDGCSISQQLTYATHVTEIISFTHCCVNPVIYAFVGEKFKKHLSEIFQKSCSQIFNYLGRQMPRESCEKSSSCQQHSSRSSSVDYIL

- IC50: 0.71 nM
B1: VHH-123 (VHH)
VHH: DVQLVESGGGLVQPGGSLRLSCTASGRTFTNYKSNYKMAWFRQAPGKARAFVGRTDWTGSSAIIANSVKGRFTISRDNAKNTVYLQMNSLRPEDTAVYYCAAGTTIGQYTYWGQGTLVTVSS
notes: also called VHH-69(E1D, N55S, D65G); not shown: C-terminal His6 tag (no FLAG3 tag)

- IC50: 0.25 nM
- fold more potent competition IC50 against the control VHH-69(E1D): 2 fold
B2: VHH-124 (VHH)
VHH: B1 VHH with S60K
notes: also called VHH-69(E1D, N55K, D65G); not shown: C-terminal His6 tag (no FLAG3 tag)
